Measurements: the supplement of paper PMC9170038

Tests used:
MS2 coat protein [1] = test: apparent KD of MS2 coat protein; higher = weaker reporter binding; details: Eterna round: R101
Experimental: (§1)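 RNA-MaP: designed FMN/MS2 RNA switches (84 nt design region) are transcribed on-chip within common flanks and titrated with SNAP-549-labelled MS2 coat protein (about 1-3000 nM) in 100 mM Tris pH 7.5, 80 mM KCl, 4 mM MgCl2, without or with 200 uM FMN. Median apparent KD per design; activation ratio = KD,OFF / KD,ON.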

MS2 coat protein [2] = test: apparent KD of MS2 coat protein; designed switch direction (-1 OFF switch, 1 ON switch): -1; higher = weaker reporter binding; details: Eterna round: R98
Experimental: as §1

MS2 coat protein [3] = test: apparent KD of MS2 coat protein; designed switch direction (-1 OFF switch, 1 ON switch): 1; higher = weaker reporter binding; details: Eterna round: R98
Experimental: as §1

Row | Sequence | apparent KD of MS2 coat protein (MS2 coat protein [1]; input ligand: FMN 200 uM) [nM] | apparent KD of MS2 coat protein (MS2 coat protein [1]; input ligand: none) [nM] | apparent KD of MS2 coat protein (MS2 coat protein [3]; input ligand: FMN 200 uM) [nM] | apparent KD of MS2 coat protein (MS2 coat protein [3]; input ligand: none) [nM] | further results
1 | AAAUAACUUGAAGGAUAUCAGGGUGCACCUCAGUAAAACUGAGGUGCACCCUGAGAAGGUCGAGGAUCACCCGAUCUAAAUAAA [#SharedSequence SLExNG1: 3-2] (puzzle (switch architecture): Small Loop Exclusion NG 1) | 13.5 | 9.19 |  |  | 
2 | AAAUAACUUGAAGGAUAUGACCCUCGAGGUGACUAAAAGUCACCUCGAGGGUCAGAAGGUCGAGGAUCACCCGAUCUAAAUAAA [#SharedSequence SLExNG1: 3-1] (puzzle (switch architecture): Small Loop Exclusion NG 1) | 24.6 | 10.2 |  |  | 
3 | AAAUUUAACGAAGGAUAUGCUGACAUGAGGAUCACCCAUGUGUGCCUUGUGUUGCUGCCUCGGGAGCAGAAGGUCGUAUACAUA [Ex NG2 #11] |  |  |  |  | apparent KD of MS2 coat protein (MS2 coat protein [2]; input ligand: FMN 200 uM): 613 nM; apparent KD of MS2 coat protein (MS2 coat protein [2]; input ligand: none): 454 nM
4 | ACAUGGAAUCGAGGAUAUGACGCGGAAACGAAGUCAGAAGGCGAAAAUUUAACUCGAUAAUACAUGAGGAUCACCCAUGUAAUU [AK-NGROCr2-ExNG1-3] |  |  |  |  | apparent KD of MS2 coat protein (MS2 coat protein [2]; input ligand: FMN 200 uM): 24.6 nM; apparent KD of MS2 coat protein (MS2 coat protein [2]; input ligand: none): 19.7 nM
5 | AGACUCAGAUGGUGCCAGCUUGCACAUGAGGAUCACCCAUGUCAGGAUAUCUUCGCUCCGAGAGAAGAGAAGGGACAAGAAUUU [Soedon] |  |  |  |  | apparent KD of MS2 coat protein (MS2 coat protein [2]; input ligand: FMN 200 uM): 234 nM; apparent KD of MS2 coat protein (MS2 coat protein [2]; input ligand: none): 79.4 nM
6 | AGAUGACAAAGUCAUCUCGCGCAGACAUGAGGAUCACCCAUGUAGGAUAUACUACUCAAAGAGUAGUAGAAGGACAUGUGUCUU [Ex NG2 #57] |  |  |  |  | apparent KD of MS2 coat protein (MS2 coat protein [2]; input ligand: FMN 200 uM): 111 nM; apparent KD of MS2 coat protein (MS2 coat protein [2]; input ligand: none): 32.5 nM
7 | AGGUAUACUUAGAAGGCGUGGACGAAACGUCCACGAGGAUAUGAGGAUCACCCAUAUCAGGUCAGCCUGCAAAGCAGGCUGACC [#SharedSequence - IExNG1: 8-2] (puzzle (switch architecture): Inverted Exclusion NG 1) | 43.9 | 12.2 |  |  | 
8 | CAACUGGCACAGAAGGGUGACAUGAGGAUCACCCAUGUAGCGUGGCACUCAGGAGGAGCCACGCCACAGGAUAUGUGCCGACAC [Beisreriar] (puzzle (switch architecture): Inverted Same State NG 2) | 45.7 | 29.9 |  |  | 
9 | CCAUAAAAGAUCCAAAAUUACAACAUGAGGAUCACCCAUGUGCAGGAUAUCGUGAAAGUAAAGUACGAGAAGGGCAGACACUGC [salish99_ExNG3_r2_008] |  |  |  |  | apparent KD of MS2 coat protein (MS2 coat protein [2]; input ligand: FMN 200 uM): 139 nM; apparent KD of MS2 coat protein (MS2 coat protein [2]; input ligand: none): 154 nM
10 | CCGACGCCUCAGAAGGCACUCGCAUAAUGCGAGUGAGGAUAUGAGGAUCACCCAUAUCAACGUCGGAGUCACCGAAACGGUGAC [#SharedSequence - IEx NG 1-2] (puzzle (switch architecture): Inverted Exclusion NG 1) | 78.1 |  |  |  | 
11 | GCACUCAAGUUAGGAUAUGGAUCGGAAAACGAUCCAGAAGGAACAUGAAAACAUGAGCAUCAGCCAUGUUCCAGAAACGAGUGC [SameSame 13 - Jieux - Same State NG 1] |  |  | 22.8 | 69.9 | 
12 | GCACUGGAUGUAGGAUAUCAGGACGAUAAGUCCUGAGAAGGACAUGAGGAUCACCCAUGUGAUAAUACCAGUGCAAAUAAUAUA [Denovo Exng1 26] |  |  |  |  | apparent KD of MS2 coat protein (MS2 coat protein [2]; input ligand: FMN 200 uM): 119 nM; apparent KD of MS2 coat protein (MS2 coat protein [2]; input ligand: none): 19.5 nM
13 | GCAGAAGGUGCGGAGGAUCACCCUGUAAGGAUAUGCAUUAGCAAGGAUAUACAGAGGAUCACCCUGUAGAAGGUGCACUUCUAA [pwkr2 ssNG3 DX.7] |  |  | 1290 | 1170 | 
14 | GCUCUCACUUGAGGAUAUCGAGUGGAAUACACUCGAGAAGGCAGGAAAACCUGAGGAUCACCCAGGUAACUGGAAAGAGAGCAA [Same State NG1 - A3C, U17G Submission 5G-G46A] |  |  | 20.3 | 16.1 | 
15 | GCUGUCGCAUGAGGAUAUGGUCACGUUUCGUGACCAGAAGGCAUGUCAAUAGACAUGAGGAUCACCCAUGUAGUAAAGACAGCA [Mat - Same State NG 1 - JL Mod - D40] |  |  | 35.1 | 386 | 
16 | GGACAUCCCACAGGAUAUGCUGGACUUUGUCCAGCAGAAGGGUGAAACAUGAGGAUCACCCAUGUAAGGAUGUCCAUAUUUAAU [Denovo 40] |  |  | 217 | 2190 | 

Row | Sequence | apparent KD of MS2 coat protein (MS2 coat protein [1]; input ligand: FMN 200 uM) [nM] | apparent KD of MS2 coat protein (MS2 coat protein [1]; input ligand: none) [nM] | apparent KD of MS2 coat protein (MS2 coat protein [3]; input ligand: FMN 200 uM) [nM] | apparent KD of MS2 coat protein (MS2 coat protein [3]; input ligand: none) [nM] | further results
17 | GGAGAUACAUGAGGAUCACCCAUGUAGGAUAUAUAGUAUAUAUAUAUCGAAAGAUAUAUAUAUAUAUAGAAGGGCGUGCACACC [#LOL-16] (puzzle (switch architecture): Small Loop Exclusion NG 3) | 6.74 | 8.34 |  |  | 
18 | GGAGAUACAUGAGGAUCACCCAUGUAGGAUAUCGGGCCCAUAUACGGCGAAAGCCGUAUAUGGGCCGAGAAGGGCGUACACACC [#LOL-7] (puzzle (switch architecture): Small Loop Exclusion NG 3) | 7.96 | 8.78 |  |  | 
19 | GGCAGCCUUCAGAAGGGAGUGCGAUAAUCGCACUCAGGAUAUGAGGAUCACCCAUAUCAAGCUGCCACUGAGGCAAAGCCUCAG [#SharedSequence - IEx NG 2-1] (puzzle (switch architecture): Inverted Exclusion NG 1) | 12.1 | 10.8 |  |  | 
20 | GUAGCAUACUGAGGAUAUUCAUAUAAUAAAUAAACAUGAGGAUCACCCAUGUGGCGAAAGCCUUGGGAGAAGGCAGAAUGCUAC [Xeonanis 55 7] |  |  | 38.3 | 511 | 
21 | GUAGCUAUCGGAGGAUAUUCAUAGCCGAGAGGCACAUGAGGAUCACCCAUGUGCGGAAACGCUUGGGAGAAGGCCGAUAGCUAC [Mat - Same State NG 2 - JL Mod - D77] |  |  | 14.3 | 21.5 | 
22 | GUCAGCUCGUGAGGAUAUACAUCACUGCUUCGGCAGUGUAUUAAGAUCACAUGAGGAUCACCCAUGUAGAAGGCACGAGCUGAU [#SameSwitchNG2InvertedNG3 NG2 A1] (puzzle (switch architecture): Exclusion NG 2) | 201 | 14.6 |  |  | 
23 | GUGAGGCAUCUACACGCUCGGGCCGAGGAUAUACAUGAGGAUCACCCAUGUAACAGUGCGGUCAUGUAGAAGGCGGCUAAAUUA [Rianrare] (puzzle (switch architecture): Small Loop Exclusion NG 3) | 42.3 | 11.1 |  |  | 
24 | GUGCACAUUCGAGGAUAUCGGAGAGGAGUCCUUCGAGAAGGCGAUUCAUGCUGUGUUAUUCUGGACAUGAGGAUCACCCAUGUG [LRO019_SS NG 1 mod JR_SSNG1_Sub034] |  |  | 107 | 149 | 
25 | UAACUAAUAUACACAUGAGGAUCACCCAUGUCCACCCGUGGACAGGAUAUCUGGCCGCGCCGGCUGGAGAAGGGUCCGUAUUGU [Arianesge] |  |  | 172 | 56.2 | 
26 | UAUAUAAUUAAGAGCUGGAAAAUCACAUGAGGAUCACCCAUGUAGGAUAUCAGCACGAUAAGUGCUGAGAAGGACUACCAGCUC [Denovo 79] |  |  |  |  | apparent KD of MS2 coat protein (MS2 coat protein [2]; input ligand: FMN 200 uM): 15.8 nM; apparent KD of MS2 coat protein (MS2 coat protein [2]; input ligand: none): 20 nM
27 | UCAUACAUGACAUGACAUGACAUGAGGAUCACCCAUGUUUACAAGGAUAUGUUGAUGAAACAUCAACAGAAGGUGUAAUGGACU [xclu_NG3_cac7] |  |  |  |  | apparent KD of MS2 coat protein (MS2 coat protein [2]; input ligand: FMN 200 uM): 232 nM; apparent KD of MS2 coat protein (MS2 coat protein [2]; input ligand: none): 136 nM
28 | UCGAACGGAAACAAAGUCGAUAGACAUGAGGAUCACCCAUGUCAGGAUAUGCCUACUAAAAGUAGGCAGAAGGGACGCGUUCGA [Contusion 7 - Jieux - Exclusion NG 3] |  |  |  |  | apparent KD of MS2 coat protein (MS2 coat protein [2]; input ligand: FMN 200 uM): 18 nM; apparent KD of MS2 coat protein (MS2 coat protein [2]; input ligand: none): 20.8 nM
29 | UGCUAACUGUAGAAGGGUGACAUGAGGAUCACCCAUGUGCACGCGCGAUUUACGGCGCGCGUGCCACAGGAUAUACAGUUUAGU [Atquar] (puzzle (switch architecture): Inverted Same State NG 2) | 34.3 | 32.7 |  |  | 
30 | UUGGACGUCGUAGGAUAUGUAGGAUAUUCCUACAUGAGGAUCACCCAUGUUUACAUGGAAGAAGGACAGAAGGACGAUGUCCAU (puzzle (switch architecture): Same State NG 2) | 5.73 | 572 |  |  | 
31 | UUUGGGAGCACAGGAUAUGGCACCUCGACCGUGCCAGAAGGGUGAUUCUGUUGGUGGCCACAUGAGGAUCACCCAUGUGCCUCC [Araterin] |  |  | 21.5 | 275 | 
